Reference: patent publication US10413607B2, “Antibody specifically binding to ErbB3 and use thereof” (ISU ABXIS CO., LTD., priority 2015, dated 2019)

Key:
ZR-75-30 cells = test: Paclitaxel resistance, caspase 3/7 activity in ZR-75-30 breast cancer cells with HRG; assay type: cell-based; details: 100 ng/mL HRG, 10 nM Paclitaxel, 25 μg/mL 442S1, about 72 hours; FIG. 10
Procedure: About 1×10^4 ZR-75-30 cells (American Type Culture Collection) were inoculated onto a plate and incubated in RPMI 1640 medium (Invitrogen) including 10% (v/v) FBS at 37° C. under 5% CO2 conditions for about 24 hours. The medium was then exchanged with fresh medium (100 ng/mL HRG added) including 0.1% (v/v) FBS, and further incubation was performed at 37° C. under 5% CO2 conditions for about 24 hours. 10 nM of Paclitaxel (Bristol-Myers Squibb) and 25 μg/mL of antibody 442S1 were added to the cultured cells and incubated at 37° C. under 5% CO2 conditions for about 72 hours. The cultured cells were collected, and the activity of caspase 3/7 as an apoptotic marker was measured using a Caspase 3/7 Substrate Assay (Promega).

[1] = target: T1, recombinant human ErbB3 protein (Homo sapiens, UniProt P21860); test: Binding affinity of anti-ErbB3 antibody to human ErbB3 protein (Octet QK384); details: immobilized human ErbB3; for ka (association constant): binding phase about 900 seconds; for kd (dissociation constant): dissociation phase about 1200 seconds
T1 construct: purchased R&D systems
Procedure: In particular, the binding affinities of the anti-ErbB3 antibodies to the recombinant human ErbB3 protein (R&D systems) and the antigen-antibody interactive dynamics were measured using an Octet® QK384 system (Pall Life Sciences). After activation of carboxyl groups in 20 mM of 1-ethyl-3-(3-dimethylaminopropyl)carbodiimide hydrochloride (EDC) and 40 mM of N-hydroxysulfosuccinimide (sulfo-NHS) solution on an AR2G sensor (ForteBio), 10 μg/mL of human ErbB3 protein solution diluted with 10 mM of sodium acetate (pH 4.0) (ForteBio) was added to immobilize human ErbB3 protein onto the AR2G sensor. The AR2G sensor to which the human ErbB3 protein was immobilized was treated with 1 M of ethanolamine (ForteBio) to inactivate the remaining unreacted carboxyl groups.

[2] = tested on: FaDu head and neck cancer, pancreatic cancer, or lung cancer; test: Tumor growth inhibition, FaDu head and neck, pancreatic or lung cancer animal model; assay type: in vivo
Procedure: The antibody 442S1 was administered into FaDu head and neck cancer, pancreatic cancer, or lung cancer animal model, and the antibodies 442P or 472P antibodies were administered into gastric cancer animal model, in the same manner as described in Examples 3.1 to 3.3.

[3] = tested on: FaDu human head and neck cancer cells; test: Cetuximab resistant FaDu xenograft model; assay type: in vivo, NOD SCID mice; details: after Cetuximab failure; 10 mg/kg 442S1, 5 mg/kg Cetuximab, twice a week, 2 weeks; FIG. 12
Procedure: FaDu human head and neck cancer cells (Shanghai Institutes of Biological Sciences) were incubated in EMEM medium (Hyclone) including 10% FBS (Invitrogen), 0.01 mM NEAA (Non-Essential Amino Acid, Hyclone), and 2 mM L-glutamine (Invitrogen). About 5×10^6 FaDu cancer cells were suspended in 100 μl of PBS and then subcutaneously injected into the frank region of the female NOD SCID mice (HFK Bio-Technology Co., Ltd.). Weights of the mice were measured twice a week, and tumor volume was calculated using the equation of “0.5 a×b^2”, where a and b were the long and short diameters of the tumor, respectively. When the tumor volume reached about 165 mm^3 after 8 days from the inoculation of the cancer cells, the mice were randomly selected. […] Tumor volumes were measured twice a week.

| Molecule | activity of caspase 3/7 (ZR-75-30 cells) | ka (association constant) [1] [M⁻¹ s⁻¹] | kd (dissociation constant) [1] [s⁻¹] | tumor volume relative to negative control group [2] | tumor suppression effect compared with Cetuximab alone [3] |
| --- | --- | --- | --- | --- | --- |
| CC(=O)O[C@H]1C(=O)[C@@]2(C)[C@H]([C@H](OC(=O)c3ccccc3)[C@]3(O)C[C@H](OC(=O)[C@H](O)[C@@H](NC(=O)c4ccccc4)c4ccccc4)C(C)=C1C3(C)C)[C@]1(OC(C)=O)CO[C@@H]1C[C@@H]2O [Paclitaxel] | reduced |  |  |  |  |
| 442S1: modified anti-ErbB3 antibody from lead antibody 442P (CDR mutagenesis) (antibody, V domains shown, Heavy chain variable region of antibody 442S1; Light chain variable region of antibody 442S1) VH: EVQLLESGGGLVQPGGSLRLSCAASGFTFSDYDMSWVRQAPGKGLEWVSTIDLDSGSIYYADSVQGRFTISRDNSKNTLYLQMNSLRAEDTAVYYCAKDLHMGPEGPFDYWGQGTLVTVSS VL: QSVLTQPPSASGTPGQRVTISCSGSSSNIGSNSVSWYQQLPGTAPKLLIYSDNHRPSGVPDRFSGSKSGTSASLAISGLRSEDEADYYCQGWDTSLSGHVFGGGTKLTVLG |  | 522000 | 3.94e-07 | tumor volume was reduced | significant tumor suppression effect |
| 451M7: modified anti-ErbB3 antibody from lead antibody 451P (CDR mutagenesis) (antibody, V domains shown, Heavy chain variable region of antibody 451M7; Light chain variable region of antibody 451M7) VH: EVQLLESGGGLVQPGGSLRLSCAASGFTFSYYDMSWVRQAPGKGLEWVSAIYYDSGSIYYADSAKGRFTISRDNSKNTLYLQMNSLRAEDTAVYYCAKDRLFESDSTFDYWGQGTLVTVSS VL: QSVLTQPPSASGTPGQRVTISCSGSPSNIGNNSVTWYQQLPGTAPKLLIYYDSHRPSGVPDRFSGSKSGTSASLAISGLRSEDEADYYCGSWDASLNGYVFGGGTKLTVLG |  | 1.35e+06 | 6.63e-06 |  |  |
| 451M2: modified anti-ErbB3 antibody from lead antibody 451P (CDR mutagenesis) (antibody, V domains shown, Heavy chain variable region of antibody 451M2; Light chain variable region of antibody 451M2) VH: EVQLLESGGGLVQPGGSLRLSCAASGFTFSDYDMSWVRQAPGKGLEWVSAIYYDSGSIYYADSAKGRFTISRDNSKNTLYLQMNSLRAEDTAVYYCAKDRLFASDSTFDYWGQGTLVTVSS VL: QSVLTQPPSASGTPGQRVTISCSGSPSNIGNNSVTWYQQLPGTAPKLLIYYDSHRPSGVPDRFSGSKSGTSASLAISGLRSEDEADYYCGSWDASLNGYVFGGGTKLTVLG |  | 1.24e+06 | 1.56e-05 |  |  |
| 451M3: modified anti-ErbB3 antibody from lead antibody 451P (CDR mutagenesis) (antibody, V domains shown, Heavy chain variable region of antibody 451M3; Light chain variable region of antibody 451M3) VH: EVQLLESGGGLVQPGGSLRLSCAASGFTFSHYDMSWVRQAPGKGLEWVSAIYYDSGSIYYADSAKGRFTISRDNSKNTLYLQMNSLRAEDTAVYYCAKDRLFASDSTFDYWGQGTLVTVSS VL: QSVLTQPPSASGTPGQRVTISCSGSPSNIGNNSVTWYQQLPGTAPKLLIYYDSHRPSGVPDRFSGSKSGTSASLAISGLRSEDEADYYCGSWDASLNGYVFGGGTKLTVLG |  | 1.87e+06 | 2.3e-07 |  |  |
| 451M5: modified anti-ErbB3 antibody from lead antibody 451P (CDR mutagenesis) (antibody, V domains shown, Heavy chain variable region of antibody 451M5; Light chain variable region of antibody 451M5) VH: EVQLLESGGGLVQPGGSLRLSCAASGFTFSDYDMSWVRQAPGKGLEWVSAIYYDSGSIYYADSAKGRFTISRDNSKNTLYLQMNSLRAEDTAVYYCAKDRLFESDSTFDYWGQGTLVTVSS VL: QSVLTQPPSASGTPGQRVTISCSGSPSNIGNNSVTWYQQLPGTAPKLLIYYDSHRPSGVPDRFSGSKSGTSASLAISGLRSEDEADYYCGSWDASLNGYVFGGGTKLTVLG |  | 1.52e+06 | 3.29e-05 |  |  |
| 472M1: modified anti-ErbB3 antibody from lead antibody 472P (CDR mutagenesis) (antibody, V domains shown, Heavy chain variable region of antibody 472M1; Light chain variable region of antibody 472M1) VH: EVQLLESGGGLVQPGGSLRLSCAASGFTFSWYDLSWVRQAPGKGLEWVSGISYDGGNTYYADSVKGRFTISRDNSKNTLYLQMNSLRAEDTAVYYCARDPSWCLQDLCYYADGMDVWGQGTLVTVSS VL: QSVLTQPPSASGTPGQRVTISCSGSSSNIGSNSVSWYQQLPGTAPKLLIYADSNRPSGVPDRFSGSKSGTSASLAISGLRSEDEADYYCGSWDYSLSGYVFGGGTKLTVLG |  | 1.39e+06 | 1.74e-05 |  |  |
| 451M6: modified anti-ErbB3 antibody from lead antibody 451P (CDR mutagenesis) (antibody, V domains shown, Heavy chain variable region of antibody 451M6; Light chain variable region of antibody 451M6) VH: EVQLLESGGGLVQPGGSLRLSCAASGFTFSHYDMSWVRQAPGKGLEWVSAIYYDSGSIYYADSAKGRFTISRDNSKNTLYLQMNSLRAEDTAVYYCAKDRLFESDSTFDYWGQGTLVTVSS VL: QSVLTQPPSASGTPGQRVTISCSGSPSNIGNNSVTWYQQLPGTAPKLLIYYDSHRPSGVPDRFSGSKSGTSASLAISGLRSEDEADYYCGSWDASLNGYVFGGGTKLTVLG |  | 1.2e+06 | 4.17e-06 |  |  |
| 451M1: modified anti-ErbB3 antibody from lead antibody 451P (CDR mutagenesis) (antibody, V domains shown, Heavy chain variable region of antibody 451M1; Light chain variable region of antibody 451M1) VH: EVQLLESGGGLVQPGGSLRLSCAASGFTFSDYDMSWVRQAPGKGLEWVSAIYYDSGSIYYADSAKGRFTISRDNSKNTLYLQMNSLRAEDTAVYYCAKDRLFMSDSTFDYWGQGTLVTVSS VL: QSVLTQPPSASGTPGQRVTISCSGSPSNIGNNSVTWYQQLPGTAPKLLIYYDSHRPSGVPDRFSGSKSGTSASLAISGLRSEDEADYYCGSWDASLNGYVFGGGTKLTVLG |  | 1.24e+06 | 3.08e-05 |  |  |
| 442S6: modified anti-ErbB3 antibody from lead antibody 442P (CDR mutagenesis) (antibody, V domains shown, Heavy chain variable region of antibody 442S6; Light chain variable region of antibody 442S6) VH: EVQLLESGGGLVQPGGSLRLSCAASGFTFSDYDMSWVRQAPGKGLEWVSSIYPDSGSTDYADSVQGRFTISRDNSKNTLYLQMNSLRAEDTAVYYCAKDRHMWPEGPFDYWGQGTLVTVSS VL: QSVLTQPPSASGTPGQRVTISCSGSSSNIGSNSGSWYQQLPGTAPKLLIYADNWRPSGVPDRFSGSKSGTSASLAISGLRSEDEADYYCAAWDSSLSGYVFGGGTKLTVLG |  | 872000 | <1e-07 |  |  |
| 451M4: modified anti-ErbB3 antibody from lead antibody 451P (CDR mutagenesis) (antibody, V domains shown, Heavy chain variable region of antibody 451M4; Light chain variable region of antibody 451M4) VH: EVQLLESGGGLVQPGGSLRLSCAASGFTFSYYDMSWVRQAPGKGLEWVSAIYYDSGSIYYADSAKGRFTISRDNSKNTLYLQMNSLRAEDTAVYYCAKDRLFASDSTFDYWGQGTLVTVSS VL: QSVLTQPPSASGTPGQRVTISCSGSPSNIGNNSVTWYQQLPGTAPKLLIYYDSHRPSGVPDRFSGSKSGTSASLAISGLRSEDEADYYCGSWDASLNGYVFGGGTKLTVLG |  | 2.01e+06 | 1.23e-05 |  |  |
